Residue numbers refer to the chain shown, from its start.
How the values were obtained:
[1] = molecular target: GPIb on human platelets (human) (UniProt P07359); assay: FACS on platelets, PRP sample #1, 1 µg scFv; PRP sample #1, 1 µg scFv
[2] = molecular target: GPIb on guinea pig platelets (guinea pig); assay: cell-based or functional assay
[3] = molecular target: T1, PSGL-1 (P-Selectin Glycoprotein Ligand-1) on cells (human) (UniProt Q14242); assay: FACS, whole blood sample #1, lymphocytes, 0.1 µg scFv
T1 sequence (looked up): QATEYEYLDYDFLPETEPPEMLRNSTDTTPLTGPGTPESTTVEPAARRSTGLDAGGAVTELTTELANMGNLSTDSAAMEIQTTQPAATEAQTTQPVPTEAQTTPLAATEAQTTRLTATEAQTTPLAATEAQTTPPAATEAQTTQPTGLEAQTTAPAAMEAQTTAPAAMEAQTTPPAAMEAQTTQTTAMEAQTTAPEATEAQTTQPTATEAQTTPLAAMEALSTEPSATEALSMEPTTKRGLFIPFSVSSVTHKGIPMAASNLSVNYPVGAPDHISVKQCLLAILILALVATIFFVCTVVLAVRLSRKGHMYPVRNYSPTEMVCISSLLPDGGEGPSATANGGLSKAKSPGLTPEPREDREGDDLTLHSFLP

[4] = molecular target: T1, PSGL-1 (P-Selectin Glycoprotein Ligand-1) on cells (human); assay: FACS, whole blood sample #2, granulocytes, 0.5 µg scFv
glycocalicin = glycocalicin (UniProt P07359); assay: SPR (BIAcore 3000), glycocalicin immobilized on CM5 chip
Chain of glycocalicin (P07359 17-531 limits assumed): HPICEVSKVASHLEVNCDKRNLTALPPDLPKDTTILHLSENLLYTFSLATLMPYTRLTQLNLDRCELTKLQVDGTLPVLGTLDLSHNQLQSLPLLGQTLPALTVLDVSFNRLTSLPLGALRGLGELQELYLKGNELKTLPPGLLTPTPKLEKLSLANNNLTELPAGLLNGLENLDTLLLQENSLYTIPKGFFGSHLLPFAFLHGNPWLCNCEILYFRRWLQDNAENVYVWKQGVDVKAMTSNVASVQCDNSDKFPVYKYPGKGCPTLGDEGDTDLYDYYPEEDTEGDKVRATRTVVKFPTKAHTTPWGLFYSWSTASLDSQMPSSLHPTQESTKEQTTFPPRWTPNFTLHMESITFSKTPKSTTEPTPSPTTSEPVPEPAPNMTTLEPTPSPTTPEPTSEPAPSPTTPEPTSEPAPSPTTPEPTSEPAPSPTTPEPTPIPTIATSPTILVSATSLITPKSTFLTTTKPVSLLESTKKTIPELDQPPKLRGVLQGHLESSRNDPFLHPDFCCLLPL

[5] = molecular target: GPIb on human platelets (human) (UniProt P07359); assay: FACS on platelets, PRP sample #2, 1 µg scFv; PRP sample #2, 1 µg scFv
[6] = molecular target: T1, PSGL-1 (P-Selectin Glycoprotein Ligand-1) on cells (human); assay: FACS, whole blood sample #1, monocytes, 0.5 µg scFv
[7] = molecular target: GPIb on human platelets (human) (UniProt P07359); assay: FACS on platelets, PRP sample #2, 2 µg scFv; PRP sample #2, 2 µg scFv
[8] = molecular target: T1, PSGL-1 (P-Selectin Glycoprotein Ligand-1) on cells (human); assay: FACS on ML-2 cells in 50% plasma, purified scFv
[9] = molecular target: T1, PSGL-1 (P-Selectin Glycoprotein Ligand-1) on cells (human); assay: FACS on ML-2 cells in PBS, purified scFv
[10] = molecular target: T1, PSGL-1 (P-Selectin Glycoprotein Ligand-1) on cells (human); assay: FACS, whole blood sample #1, lymphocytes, 1 µg scFv
[11] = molecular target: T1, PSGL-1 (P-Selectin Glycoprotein Ligand-1) on cells (human); assay: FACS, whole blood sample #1, lymphocytes, 0.5 µg scFv
[12] = molecular target: T1, PSGL-1 (P-Selectin Glycoprotein Ligand-1) on cells (human); assay: FACS, whole blood sample #2, monocytes, 0.1 µg scFv
[13] = molecular target: T1, PSGL-1 (P-Selectin Glycoprotein Ligand-1) on cells (human); assay: FACS, whole blood sample #2, monocytes, 1 µg scFv
[14] = molecular target: GPIb on human platelets (human) (UniProt P07359); assay: FACS on platelets, PRP sample #1, 2 µg scFv; PRP sample #1, 2 µg scFv
[15] = molecular target: T1, PSGL-1 (P-Selectin Glycoprotein Ligand-1) on cells (human); assay: FACS, whole blood sample #1, monocytes, 1 µg scFv
[16] = molecular target: T1, PSGL-1 (P-Selectin Glycoprotein Ligand-1) on cells (human); assay: FACS, whole blood sample #2, lymphocytes, 0.5 µg scFv
[17] = molecular target: T1, PSGL-1 (P-Selectin Glycoprotein Ligand-1) on cells (human); assay: FACS, whole blood sample #2, monocytes, 0.5 µg scFv
[18] = molecular target: T1, PSGL-1 (P-Selectin Glycoprotein Ligand-1) on cells (human); assay: FACS, whole blood sample #2, granulocytes, 1 µg scFv
[19] = molecular target: T1, PSGL-1 (P-Selectin Glycoprotein Ligand-1) on cells (human); assay: FACS, whole blood sample #2, lymphocytes, 1 µg scFv
[20] = molecular target: T1, PSGL-1 (P-Selectin Glycoprotein Ligand-1) on cells (human); assay: FACS, whole blood sample #1, monocytes, 0.1 µg scFv
[21] = molecular target: T1, PSGL-1 (P-Selectin Glycoprotein Ligand-1) on cells (human); assay: FACS, whole blood sample #1, granulocytes, 0.5 µg scFv
[22] = molecular target: T1, PSGL-1 (P-Selectin Glycoprotein Ligand-1) on cells (human); assay: FACS, whole blood sample #1, granulocytes, 0.1 µg scFv
[23] = molecular target: T1, PSGL-1 (P-Selectin Glycoprotein Ligand-1) on cells (human); assay: FACS, whole blood sample #2, granulocytes, 0.1 µg scFv
[24] = molecular target: T1, PSGL-1 (P-Selectin Glycoprotein Ligand-1) on cells (human); assay: FACS, whole blood sample #1, granulocytes, 1 µg scFv
[25] = molecular target: GPIb on human platelets (human) (UniProt P07359); assay: FACS on platelets in PRP, 1 µg scFv; mean of PRP samples #1 and #2, 1 µg scFv
[26] = molecular target: T1, PSGL-1 (P-Selectin Glycoprotein Ligand-1) on cells (human); assay: FACS, whole blood sample #2, lymphocytes, 0.1 µg scFv
[27] = molecular target: T2, CCR5 (residues 1-18) derived peptide sulfated at 2nd tyrosine position; assay: ELISA on coated peptide
T2 sequence (peptide, sulfated at 2nd tyrosine position): MDYQVSSPIYDINYYTSE

[28] = molecular target: T3, GPIb (residues 268-285) derived peptide sulfated at 3rd tyrosine position; assay: ELISA on coated peptide
T3 sequence (peptide, sulfated at 3rd tyrosine position): GDEGDTDLYDYYPEEDTE

[29] = molecular target: T4, CCR5 (residues 1-18) derived peptide sulfated at 1st tyrosine position; assay: ELISA on coated peptide
T4 sequence (peptide, sulfated at 1st tyrosine position): MDYQVSSPIYDINYYTSE

[30] = molecular target: T5, GPIb (residues 268-285) derived peptide sulfated at 1st tyrosine position; assay: ELISA on coated peptide
T5 sequence (peptide, sulfated at 1st tyrosine position): GDEGDTDLYDYYPEEDTE

[31] = molecular target: T6, PSGL-1 (residues 42-58) derived peptide sulfated at 2nd tyrosine position; assay: ELISA on coated peptide
T6 sequence (peptide, sulfated at 2nd tyrosine position): QATEYEYLDYDFLPETE

[32] = molecular target: T7, PSGL-1 (residues 42-58) derived peptide sulfated at 1st tyrosine position; assay: ELISA on coated peptide
T7 sequence (peptide, sulfated at 1st tyrosine position): QATEYEYLDYDFLPETE

[33] = molecular target: T8, CCR5 (residues 1-18) derived peptide sulfated at 3rd tyrosine position; assay: ELISA on coated peptide
T8 sequence (peptide, sulfated at 3rd tyrosine position): MDYQVSSPIYDINYYTSE

[34] = molecular target: T9, PSGL-1 (residues 42-58) derived peptide sulfated at 3rd tyrosine position; assay: ELISA on coated peptide
T9 sequence (peptide, sulfated at 3rd tyrosine position): QATEYEYLDYDFLPETE

[35] = molecular target: GPIb on guinea pig platelets (guinea pig); assay: FACS on guinea pig platelets
[36] = molecular target: T10, PSGL-1 (residues 42-58) derived peptide, non-sulfated; assay: ELISA on coated peptide
T10 sequence (peptide): QATEYEYLDYDFLPETE

[37] = molecular target: T11, CCR5 (residues 1-18) derived peptide, non-sulfated; assay: ELISA on coated peptide
T11 sequence (peptide): MDYQVSSPIYDINYYTSE

[38] = molecular target: T12, GPIb (residues 268-285) derived peptide, non-sulfated; assay: ELISA on coated peptide
T12 sequence (peptide): GDEGDTDLYDYYPEEDTE

Chain of GPIb on human platelets (human) (P07359 17-652): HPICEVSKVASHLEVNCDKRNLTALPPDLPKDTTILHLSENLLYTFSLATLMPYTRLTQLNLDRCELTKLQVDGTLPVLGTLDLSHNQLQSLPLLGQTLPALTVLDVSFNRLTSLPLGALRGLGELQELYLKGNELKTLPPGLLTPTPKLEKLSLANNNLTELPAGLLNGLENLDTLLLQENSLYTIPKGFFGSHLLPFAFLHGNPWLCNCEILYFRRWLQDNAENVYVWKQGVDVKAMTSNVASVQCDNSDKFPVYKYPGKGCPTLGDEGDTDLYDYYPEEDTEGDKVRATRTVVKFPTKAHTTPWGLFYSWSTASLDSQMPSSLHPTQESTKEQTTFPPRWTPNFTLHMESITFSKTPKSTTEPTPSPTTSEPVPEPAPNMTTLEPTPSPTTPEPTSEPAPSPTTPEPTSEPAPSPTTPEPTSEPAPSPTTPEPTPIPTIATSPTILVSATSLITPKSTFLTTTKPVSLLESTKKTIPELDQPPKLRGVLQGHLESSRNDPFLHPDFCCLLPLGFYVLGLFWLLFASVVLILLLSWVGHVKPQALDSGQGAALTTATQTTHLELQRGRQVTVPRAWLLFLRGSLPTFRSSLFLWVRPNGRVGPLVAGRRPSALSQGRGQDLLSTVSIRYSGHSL

B1: S15 scFv (scFv)
scFv: EVQLVESGGGVVRPGGSLRLSCAASGFTFDLNPKVKHMWVRQAPGKGLEWVSGINWNGGSTGYADSVKGRFTISRDNAKNSLYLQMNSLRAEDTAVYYCARLRRPSIWGQGTLVTVSRGGGGSGGGGSGGGGSSELTQDPAVSVALGQTVRITCQGDSLRSYYASWYQQKPGQAPVLVIYGKNNRPSGIPDRFSGSSSGNTASLTITGAQAEDEADYYCNSRDSSGNHVVFGGGTKLTVLGAAAEQKLISEEDLNGAA
- Geo Mean [1]: 30
- inhibition of guinea pig platelet aggregation, IC50 [2]: 80 to 160 µg/mL
- Geo Mean [3]: 36
- Geo Mean [4]: 151
- Kd (glycocalicin): 180 nM
- koff (glycocalicin): 0.43 s⁻¹
- Geo Mean [5]: 23
- Geo Mean [6]: 192
- Geo Mean [7]: 68
- fold binding compared to L32 and Y1 [8]: > 10 fold
- fold binding compared to L32 and Y1 [9]: > 100 fold
- Geo Mean [10]: 120
- Geo Mean [11]: 81
- Geo Mean [12]: 69
- Geo Mean [13]: 340
- Geo Mean [14]: 120
- Geo Mean [15]: 290
- Geo Mean [16]: 78
- Geo Mean [17]: 248
- Geo Mean [18]: 220
- Geo Mean [19]: 112
- Geo Mean [20]: 56
- Geo Mean [21]: 100
- Geo Mean [22]: 26
- Geo Mean [23]: 44
- Geo Mean [24]: 150
- average geo mean of both PRP samples [25]: 26
- Geo Mean [26]: 18
- ELISA reading at 450 nm [27]: 0.3
- ELISA reading at 450 nm [28]: 0.3
- ELISA reading at 450 nm [29]: 0.12
- ELISA reading at 450 nm [30]: 0.6
- ELISA reading at 450 nm [31]: 0.2
- ELISA reading at 450 nm [32]: 0.02
- ELISA reading at 450 nm [33]: 0.16
- ELISA reading at 450 nm [34]: 0.6

B2: S11 scFv (scFv, from a related filing)
scFv: B1 scFv with R104Y, S106F, I107F
- fold binding capacity relative to Y1 [35]: 25 fold
- ELISA reading at 450 nm [27]: 0.7
- ELISA reading at 450 nm [28]: 0.3
- ELISA reading at 450 nm [36]: 0.01
- ELISA reading at 450 nm [29]: 0.12
- ELISA reading at 450 nm [37]: 0.08
- ELISA reading at 450 nm [38]: 0.1
- ELISA reading at 450 nm [30]: 0.6
- ELISA reading at 450 nm [31]: 0.12
- ELISA reading at 450 nm [32]: 0.16
- ELISA reading at 450 nm [33]: 0.11
- ELISA reading at 450 nm [34]: 0.7

B3: S1 scFv (scFv, from a related filing)
scFv: B1 scFv with R104P, S106F, I107L
- fold binding capacity relative to Y1 [35]: 25 fold
- ELISA reading at 450 nm [27]: 0.3
- ELISA reading at 450 nm [28]: 0.15
- ELISA reading at 450 nm [36]: 0.07
- ELISA reading at 450 nm [29]: 0.07
- ELISA reading at 450 nm [37]: 0.06
- ELISA reading at 450 nm [38]: 0.07
- ELISA reading at 450 nm [30]: 0.8
- ELISA reading at 450 nm [31]: 0.08
- ELISA reading at 450 nm [32]: 0.1
- ELISA reading at 450 nm [33]: 0.07
- ELISA reading at 450 nm [34]: 0.8

From patent publication US20050266009A1
